# T1: NHERF3_1, Q5T2W1
# T1 sequence (Q5T2W1 4-100, limits assumed, looked up): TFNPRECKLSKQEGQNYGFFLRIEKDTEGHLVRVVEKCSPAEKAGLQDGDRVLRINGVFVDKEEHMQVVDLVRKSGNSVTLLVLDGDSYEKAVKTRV
# T2: MPP6, Q9NZW5
# T2 sequence (Q9NZW5 125-219, limits assumed, looked up): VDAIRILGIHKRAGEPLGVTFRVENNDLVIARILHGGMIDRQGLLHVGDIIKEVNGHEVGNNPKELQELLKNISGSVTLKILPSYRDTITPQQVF
# T3: SYNJ2BP, P57105
# T3 sequence (P57105 8-110, limits assumed, looked up): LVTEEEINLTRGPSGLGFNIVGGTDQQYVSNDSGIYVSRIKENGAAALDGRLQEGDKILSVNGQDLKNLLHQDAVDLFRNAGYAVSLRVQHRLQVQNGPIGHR
# T4: LIN7B, Q9HAP6
# T4 sequence (Q9HAP6 88-185, limits assumed, looked up): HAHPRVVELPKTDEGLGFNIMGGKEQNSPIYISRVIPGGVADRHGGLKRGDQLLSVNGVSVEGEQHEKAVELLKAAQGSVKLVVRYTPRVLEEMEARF
# T5: ARHGAP21, Q5T5U3
# T5 sequence (Q5T5U3 45-169, limits assumed, looked up): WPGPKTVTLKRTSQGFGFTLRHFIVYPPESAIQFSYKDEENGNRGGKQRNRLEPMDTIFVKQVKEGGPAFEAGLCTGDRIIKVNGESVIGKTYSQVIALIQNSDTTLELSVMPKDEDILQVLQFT
# T6: DFNB31_2, Q9P202
# T6 sequence (Q9P202 274-371, limits assumed, looked up): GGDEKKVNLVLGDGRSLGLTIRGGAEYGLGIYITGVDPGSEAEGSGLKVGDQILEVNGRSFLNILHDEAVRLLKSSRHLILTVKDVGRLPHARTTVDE
# T7: PDZRN3_1, Q9UPQ7
# T7 sequence (Q9UPQ7 244-349, limits assumed, looked up): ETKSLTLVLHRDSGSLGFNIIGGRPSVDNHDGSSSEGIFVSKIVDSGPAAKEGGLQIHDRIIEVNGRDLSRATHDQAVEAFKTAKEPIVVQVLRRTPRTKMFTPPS
# T8: SNTG1, Q9NSN8
# T8 sequence (Q9NSN8 52-150, limits assumed, looked up): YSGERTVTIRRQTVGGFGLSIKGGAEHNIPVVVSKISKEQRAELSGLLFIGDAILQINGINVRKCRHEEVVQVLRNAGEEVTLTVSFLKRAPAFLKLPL
# T9: MPP7, Q5T2T1
# T9 sequence (Q5T2T1 134-230, limits assumed, looked up): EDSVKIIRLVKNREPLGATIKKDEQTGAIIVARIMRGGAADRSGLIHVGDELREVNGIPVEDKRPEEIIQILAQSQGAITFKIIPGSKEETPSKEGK
# T10: HTRA4, P83105
# T10 sequence (P83105 378-476, limits assumed, looked up): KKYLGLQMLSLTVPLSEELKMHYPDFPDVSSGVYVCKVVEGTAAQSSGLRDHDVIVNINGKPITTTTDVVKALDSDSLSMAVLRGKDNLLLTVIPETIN
# T11: DLG3_2, Q92796
# T11 sequence (Q92796 221-321, limits assumed, looked up): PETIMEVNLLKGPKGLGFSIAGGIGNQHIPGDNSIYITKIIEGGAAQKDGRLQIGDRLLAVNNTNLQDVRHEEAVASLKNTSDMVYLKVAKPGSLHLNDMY
# T12: GRIP1_3, Q9Y3R0
# T12 sequence (Q9Y3R0 247-346, limits assumed, looked up): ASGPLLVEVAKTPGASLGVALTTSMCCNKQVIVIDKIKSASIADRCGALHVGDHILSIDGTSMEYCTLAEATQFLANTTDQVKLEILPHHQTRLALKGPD
# Target: LDB3, O75112
# Sequence (O75112 1-94): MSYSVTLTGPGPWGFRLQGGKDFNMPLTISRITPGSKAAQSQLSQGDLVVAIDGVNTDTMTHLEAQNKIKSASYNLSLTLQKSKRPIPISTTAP
# Experiment: holdup assay
# Set-up: key: below the threshold = too weak to quantify, mostly under pKd 3.1 to 4
# Settings: plain residues with an end cap or a label only (N-terminal biotin on a linker: ado-ado)
row,pKd,Binder
1,below the threshold,"PAPGQHTTQI [STK16, O75716]"

# Target: PICK1, Q9NRD5
# Sequence (Q9NRD5 17-115): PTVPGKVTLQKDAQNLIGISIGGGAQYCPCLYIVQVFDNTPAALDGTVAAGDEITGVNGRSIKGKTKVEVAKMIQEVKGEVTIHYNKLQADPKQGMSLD
# Experiment: holdup assay
# Set-up: key: below the threshold = too weak to quantify, mostly under pKd 3.1 to 4
# Settings: plain residues with an end cap or a label only (N-terminal biotin on a linker: ado-ado)
row,pKd,Binder
1,4.07,"PAPGQHTTQI [STK16, O75716]"

# Target: T1, NHERF3_1, Q5T2W1
# Experiment: holdup assay
# Set-up: key: below the threshold = too weak to quantify, mostly under pKd 3.1 to 4
# Settings: plain residues with an end cap or a label only (N-terminal biotin on a linker: ado-ado)
row,pKd,Binder
1,4.26,"PAPGQHTTQI [STK16, O75716]"

# Target: GRIP2_5, Q9C0E4
# Sequence (Q9C0E4 544-642): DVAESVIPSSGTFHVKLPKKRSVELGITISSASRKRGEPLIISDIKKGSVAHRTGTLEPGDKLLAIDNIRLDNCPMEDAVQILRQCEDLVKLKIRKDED
# Experiment: holdup assay
# Set-up: key: below the threshold = too weak to quantify, mostly under pKd 3.1 to 4
# Settings: plain residues with an end cap or a label only (N-terminal biotin on a linker: ado-ado)
row,pKd,Binder
1,below the threshold,"PAPGQHTTQI [STK16, O75716]"

# Target: T2, MPP6, Q9NZW5
# Experiment: holdup assay
# Set-up: key: below the threshold = too weak to quantify, mostly under pKd 3.1 to 4
# Settings: plain residues with an end cap or a label only (N-terminal biotin on a linker: ado-ado)
row,pKd,Binder
1,3.57,"PAPGQHTTQI [STK16, O75716]"

# Target: T3, SYNJ2BP, P57105
# Experiment: holdup assay
# Set-up: key: below the threshold = too weak to quantify, mostly under pKd 3.1 to 4
# Settings: plain residues with an end cap or a label only (N-terminal biotin on a linker: ado-ado)
row,pKd,Binder
1,3.51,"PAPGQHTTQI [STK16, O75716]"

# Target: GRIP2_7, Q9C0E4
# Sequence (Q9C0E4 934-1023): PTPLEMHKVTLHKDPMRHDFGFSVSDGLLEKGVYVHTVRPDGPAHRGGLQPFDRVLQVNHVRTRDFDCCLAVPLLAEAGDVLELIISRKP
# Experiment: holdup assay
# Set-up: key: below the threshold = too weak to quantify, mostly under pKd 3.1 to 4
# Settings: plain residues with an end cap or a label only (N-terminal biotin on a linker: ado-ado)
row,pKd,Binder
1,below the threshold,"PAPGQHTTQI [STK16, O75716]"

# Target: Inadl_2, Q8NI35
# Sequence (Q8NI35 238-335): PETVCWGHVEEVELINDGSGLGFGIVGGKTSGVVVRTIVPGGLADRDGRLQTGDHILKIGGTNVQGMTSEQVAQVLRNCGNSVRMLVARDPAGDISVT
# Experiment: holdup assay
# Set-up: key: below the threshold = too weak to quantify, mostly under pKd 3.1 to 4
# Settings: plain residues with an end cap or a label only (N-terminal biotin on a linker: ado-ado)
row,pKd,Binder
1,below the threshold,"PAPGQHTTQI [STK16, O75716]"

# Target: MAGI1_2, Q96QZ7
# Sequence (Q96QZ7 456-580): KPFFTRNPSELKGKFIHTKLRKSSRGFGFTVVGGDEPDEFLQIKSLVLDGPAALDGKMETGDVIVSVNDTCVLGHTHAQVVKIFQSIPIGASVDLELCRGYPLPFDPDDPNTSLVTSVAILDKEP
# Experiment: holdup assay
# Set-up: key: below the threshold = too weak to quantify, mostly under pKd 3.1 to 4
# Settings: plain residues with an end cap or a label only (N-terminal biotin on a linker: ado-ado)
row,pKd,Binder
1,below the threshold,"PAPGQHTTQI [STK16, O75716]"

# Target: T4, LIN7B, Q9HAP6
# Experiment: holdup assay
# Set-up: key: below the threshold = too weak to quantify, mostly under pKd 3.1 to 4
# Settings: plain residues with an end cap or a label only (N-terminal biotin on a linker: ado-ado)
row,pKd,Binder
1,3.92,"PAPGQHTTQI [STK16, O75716]"

# Target: T5, ARHGAP21, Q5T5U3
# Experiment: holdup assay
# Set-up: key: below the threshold = too weak to quantify, mostly under pKd 3.1 to 4
# Settings: plain residues with an end cap or a label only (N-terminal biotin on a linker: ado-ado)
row,pKd,Binder
1,below the threshold,"PAPGQHTTQI [STK16, O75716]"

# Target: T6, DFNB31_2, Q9P202
# Experiment: holdup assay
# Set-up: key: below the threshold = too weak to quantify, mostly under pKd 3.1 to 4
# Settings: plain residues with an end cap or a label only (N-terminal biotin on a linker: ado-ado)
row,pKd,Binder
1,below the threshold,"PAPGQHTTQI [STK16, O75716]"

# Target: GIPC2, Q8TF65
# Sequence (Q8TF65 112-203): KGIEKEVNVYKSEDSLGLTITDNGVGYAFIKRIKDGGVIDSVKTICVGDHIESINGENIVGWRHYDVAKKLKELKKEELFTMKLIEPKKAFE
# Experiment: holdup assay
# Set-up: key: below the threshold = too weak to quantify, mostly under pKd 3.1 to 4
# Settings: plain residues with an end cap or a label only (N-terminal biotin on a linker: ado-ado)
row,pKd,Binder
1,below the threshold,"PAPGQHTTQI [STK16, O75716]"

# Target: FRMPD2_3, Q68DX3
# Sequence (Q68DX3 1073-1166): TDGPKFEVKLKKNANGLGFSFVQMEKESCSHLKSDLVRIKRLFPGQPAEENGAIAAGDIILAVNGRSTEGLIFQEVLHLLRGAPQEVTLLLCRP
# Experiment: holdup assay
# Set-up: key: below the threshold = too weak to quantify, mostly under pKd 3.1 to 4
# Settings: plain residues with an end cap or a label only (N-terminal biotin on a linker: ado-ado)
row,pKd,Binder
1,below the threshold,"PAPGQHTTQI [STK16, O75716]"

# Target: Inadl_10, Q8NI35
# Sequence (Q8NI35 1673-1763): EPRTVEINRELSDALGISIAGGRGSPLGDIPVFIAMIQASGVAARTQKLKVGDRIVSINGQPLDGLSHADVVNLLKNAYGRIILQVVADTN
# Experiment: holdup assay
# Set-up: key: below the threshold = too weak to quantify, mostly under pKd 3.1 to 4
# Settings: plain residues with an end cap or a label only (N-terminal biotin on a linker: ado-ado)
row,pKd,Binder
1,below the threshold,"PAPGQHTTQI [STK16, O75716]"

# Target: Inadl_6, Q8NI35
# Sequence (Q8NI35 1058-1167): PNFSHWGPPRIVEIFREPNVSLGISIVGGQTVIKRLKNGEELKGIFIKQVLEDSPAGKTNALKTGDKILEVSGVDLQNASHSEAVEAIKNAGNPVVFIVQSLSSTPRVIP
# Experiment: holdup assay
# Set-up: key: below the threshold = too weak to quantify, mostly under pKd 3.1 to 4
# Settings: plain residues with an end cap or a label only (N-terminal biotin on a linker: ado-ado)
row,pKd,Binder
1,below the threshold,"PAPGQHTTQI [STK16, O75716]"

# Target: T7, PDZRN3_1, Q9UPQ7
# Experiment: holdup assay
# Set-up: key: below the threshold = too weak to quantify, mostly under pKd 3.1 to 4
# Settings: plain residues with an end cap or a label only (N-terminal biotin on a linker: ado-ado)
row,pKd,Binder
1,below the threshold,"PAPGQHTTQI [STK16, O75716]"

# Target: T8, SNTG1, Q9NSN8
# Experiment: holdup assay
# Set-up: key: below the threshold = too weak to quantify, mostly under pKd 3.1 to 4
# Settings: plain residues with an end cap or a label only (N-terminal biotin on a linker: ado-ado)
row,pKd,Binder
1,below the threshold,"PAPGQHTTQI [STK16, O75716]"

# Target: T9, MPP7, Q5T2T1
# Experiment: holdup assay
# Set-up: key: below the threshold = too weak to quantify, mostly under pKd 3.1 to 4
# Settings: plain residues with an end cap or a label only (N-terminal biotin on a linker: ado-ado)
row,pKd,Binder
1,below the threshold,"PAPGQHTTQI [STK16, O75716]"

# Target: MAGI2_5, Q86UL8
# Sequence (Q86UL8 915-1017): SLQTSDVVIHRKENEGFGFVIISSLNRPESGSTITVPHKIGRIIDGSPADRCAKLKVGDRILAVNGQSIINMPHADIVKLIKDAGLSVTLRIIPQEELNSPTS
# Experiment: holdup assay
# Set-up: key: below the threshold = too weak to quantify, mostly under pKd 3.1 to 4
# Settings: plain residues with an end cap or a label only (N-terminal biotin on a linker: ado-ado)
row,pKd,Binder
1,below the threshold,"PAPGQHTTQI [STK16, O75716]"

# Target: MAGI3_2, Q5TCQ9
# Sequence (Q5TCQ9 398-503): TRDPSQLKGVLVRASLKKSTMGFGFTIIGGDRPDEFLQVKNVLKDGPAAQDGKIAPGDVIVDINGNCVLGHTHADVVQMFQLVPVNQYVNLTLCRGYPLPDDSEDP
# Experiment: holdup assay
# Set-up: key: below the threshold = too weak to quantify, mostly under pKd 3.1 to 4
# Settings: plain residues with an end cap or a label only (N-terminal biotin on a linker: ado-ado)
row,pKd,Binder
1,below the threshold,"PAPGQHTTQI [STK16, O75716]"

# Target: T10, HTRA4, P83105
# Experiment: holdup assay
# Set-up: key: below the threshold = too weak to quantify, mostly under pKd 3.1 to 4
# Settings: plain residues with an end cap or a label only (N-terminal biotin on a linker: ado-ado)
row,pKd,Binder
1,3.8,"PAPGQHTTQI [STK16, O75716]"

# Target: T11, DLG3_2, Q92796
# Experiment: holdup assay
# Set-up: key: below the threshold = too weak to quantify, mostly under pKd 3.1 to 4
# Settings: plain residues with an end cap or a label only (N-terminal biotin on a linker: ado-ado)
row,pKd,Binder
1,4.11,"PAPGQHTTQI [STK16, O75716]"

# Target: T12, GRIP1_3, Q9Y3R0
# Experiment: holdup assay
# Set-up: key: below the threshold = too weak to quantify, mostly under pKd 3.1 to 4
# Settings: plain residues with an end cap or a label only (N-terminal biotin on a linker: ado-ado)
row,pKd,Binder
1,below the threshold,"PAPGQHTTQI [STK16, O75716]"

# Reference: publication PMC9482650, “Quantitative fragmentomics allow affinity mapping of interactomes” (Nature Communications, 2022)
